Test results: publication PMC10140047
Values belong to the substance of their own block, whether it stands above or below them.

Experiments:
[1] = biological target: GST-RanBP2 BBD phosphorylated by CDK1/cyclin B (human) (UniProt P49792); test: pull-down; GST-RanBP2 BBD on GSH agarose beads, untreated or pre-phosphorylated by CDK1/cyclin B1, incubated 90 min at RT with purified TwinStrep-BICD2 in Binding Buffer (50 mM Tris pH 7.4, 125 mM NaCl, 5 mM EDTA, 0.1% NP40); blot with anti-BICD2
[2] = biological target: PLK1 PBD, 354-603 (Methods: 345-603) (UniProt P53350); test: GST-PBD pull-down from cell extracts; details: reference: wild type; sites T319,S320,T321
[3] = biological target: dynein (cytoplasmic dynein-1, endogenous, detected by its intermediate chain DIC) (human (endogenous in HeLa)) (UniProt Q13409)
PLK1 = PLK1 (UniProt P53350); test: anti-GFP IP, PLK1 blot; details: reference: wild type, sites T319,S320,T321
[4] = biological target: RanBP2/NUP358 BICD2 Binding Domain (BBD), 2147-2287 (UniProt P49792); test: GST pull-down with purified proteins; details: reference: wild type; sites S102

dynein (cytoplasmic dynein-1, endogenous, detected by its intermediate chain DIC) (human (endogenous in HeLa)), sequence (Q13409 whole entry, looked up): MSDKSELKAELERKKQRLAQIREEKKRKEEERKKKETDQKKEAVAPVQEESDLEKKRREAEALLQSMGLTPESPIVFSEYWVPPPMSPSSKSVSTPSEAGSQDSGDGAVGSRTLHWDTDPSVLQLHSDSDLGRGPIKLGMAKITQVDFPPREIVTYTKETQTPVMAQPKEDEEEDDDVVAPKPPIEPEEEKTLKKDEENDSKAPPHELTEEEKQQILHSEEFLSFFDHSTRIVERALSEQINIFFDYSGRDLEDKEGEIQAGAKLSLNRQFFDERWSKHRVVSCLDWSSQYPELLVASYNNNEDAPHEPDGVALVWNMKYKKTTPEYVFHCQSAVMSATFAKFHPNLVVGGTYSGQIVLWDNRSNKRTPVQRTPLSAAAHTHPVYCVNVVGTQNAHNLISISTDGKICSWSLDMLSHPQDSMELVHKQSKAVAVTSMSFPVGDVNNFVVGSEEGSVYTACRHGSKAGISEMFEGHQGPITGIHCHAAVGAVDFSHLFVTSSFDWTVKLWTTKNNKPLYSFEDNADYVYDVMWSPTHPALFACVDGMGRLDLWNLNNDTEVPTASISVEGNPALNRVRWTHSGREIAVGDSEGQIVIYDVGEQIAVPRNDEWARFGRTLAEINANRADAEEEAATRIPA
GST-RanBP2 BBD phosphorylated by CDK1/cyclin B (human), sequence (P49792 2147-2287): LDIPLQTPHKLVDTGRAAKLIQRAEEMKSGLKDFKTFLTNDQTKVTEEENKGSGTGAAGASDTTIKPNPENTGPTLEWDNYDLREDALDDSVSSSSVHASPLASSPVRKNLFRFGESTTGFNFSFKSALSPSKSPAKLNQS

- fold binding against wild-type BICD2 on phosphorylated BBD [1]: 12 fold
- fold binding against wild-type BICD2 on unmodified BBD [1]: 400 times
Substance: TwinStrep-BICD2 S102D (from UniProt Q921C5 1-820) (natural protein)

- binding against the reference [2]: lost
Substance: BICD2 (mouse, recombinant) (from UniProt Q921C5) T319A/S320A/T321A

Substance: GFP-BICD2 S102D (from UniProt Q921C5 1-820) (natural protein)
- percent of U2OS cells with clustered mitochondria, BICD2 form expressed as GFP-BICD2 S102D-MTD [3]: 61%

- binding against the reference (PLK1; mitotic cells): lost
Substance: BICD2 (mouse, recombinant) (from UniProt Q921C5) T319A/S320A/T321A, mitotic cells

Substance: GFP-BICD2 wild type (from UniProt Q921C5 1-820) (natural protein)
- percent of U2OS cells with clustered mitochondria, BICD2 form expressed as GFP-BICD2 WT-MTD [3]: 50%

Substance: GFP-BICD2 [1–575] (from UniProt Q921C5 1-575) (domain or fragment)
- percent of U2OS cells with clustered mitochondria, BICD2 form expressed as GFP-BICD2 [1–575]-MTD [3]: 85%

- fold change [4]: 12
Substance: BICD2 (mouse, recombinant) (from UniProt Q921C5) S102D

Substance: GFP-BICD2 S102A (from UniProt Q921C5 1-820) (natural protein)
- percent of U2OS cells with clustered mitochondria, BICD2 form expressed as GFP-BICD2 S102A-MTD [3]: 43%

- binding against the reference (PLK1; exponentially growing cells): lost
Substance: BICD2 (mouse, recombinant) (from UniProt Q921C5) T319A/S320A/T321A, exponentially growing cells
